Here are results for eleven molecules from paper PMC12588282 (Science Advances, 2025).

Data set [1] addresses Fc region of the Xenopus laevis IgX heavy chain (Cχ2, Cχ3, Cχ4 and χtp) (Xenopus laevis). Description: 2D cryo-EM classification.
Data set [2] concerns the target Fragment of Fcχ consisting of Cχ3, Cχ4 and χtp (Xenopus laevis). Description: cryo-EM structure.
For data set [3] the target is unchanged. Put plainly: 2D cryo-EM classification.
Data set [4] has as its target Human Fcμ variant with the tailpiece truncated to 13 residues (human). Put plainly: 2D cryo-EM classification.
Data set [5] shares this target. Description: native gel or EMSA. Background: In EMSA bound probe runs differently from free probe, usually more slowly.
Data set [6] addresses Human Fcμ variant with the tailpiece truncated to 14 residues (human). Put plainly: 2D cryo-EM classification.
For data set [7] the target is unchanged. Description: native gel or EMSA.
Data set [8] addresses Human Fcμ variant with the tailpiece truncated to 15 residues (human). Put plainly: 2D cryo-EM classification.
Data set [9] has the same target. Description: native gel or EMSA.
Data set [10] deals with Human Fcμ variant with the tailpiece truncated to 16 residues (human). Description: 2D cryo-EM classification.
For data set [11] the target is unchanged. Description: native gel or EMSA.
In data set [12] the target is Human Fcμ variant with the tailpiece truncated to 17 residues (human). Description: 2D cryo-EM classification.
In data set [13] the target is Recombinant human Fcμ with an intact 18-amino acid tailpiece (human). Put plainly: AUC.
The target is the same in data set [14]. Description: 2D cryo-EM classification.
Data set [15] deals with the molecule itself. Put plainly: 2D cryo-EM classification.
The data set “AUC” deals with the molecule itself. Description: AUC.

As a reminder, the stoichiometry N is the number of molecules, sites or subunits per partner or assembly.

Values joined by “and” are separate entries in the source; they are usually repeats but may differ in a detail not shown here. Identical values can stand only once.

In [1], “Fc region of the Xenopus laevis IgX heavy chain (Cχ2, Cχ3, Cχ4 and χtp) (domain or fragment)” had a stoichiometry N of 6.

On to “Fragment of Fcχ consisting of Cχ3, Cχ4 and χtp (domain or fragment)”, for which the stoichiometry N in data set [2] and in data set [3] was 6 in each case.

With “Human Fcμ variant with the tailpiece truncated to 13 residues (domain or fragment)”, the stoichiometry N in [4] and in data set [5] was 6 each time.

Take “Human Fcμ variant with the tailpiece truncated to 14 residues (domain or fragment)”: the stoichiometry N in [6] and in data set [7] was 6 throughout.

Take “Human Fcμ variant with the tailpiece truncated to 15 residues (domain or fragment)”: the stoichiometry N in data set [8] and in [9] was 6 in each case.

In the case of “Human Fcμ variant with the tailpiece truncated to 16 residues (domain or fragment)”, the stoichiometry N in data set [10] and in [11] was 6 each time.

On to “Human Fcμ variant with the tailpiece truncated to 17 residues (domain or fragment)”, for which the stoichiometry N in data set [12] was 6 and 5.

On to “Recombinant human Fcμ with an intact 18-amino acid tailpiece (domain or fragment)”, for which the stoichiometry N in [13] is 4 and 5 and 6; in data set [14], 6 and 4 and 5.

B1: Human Fcμ variant with the tailpiece truncated to 10 residues (domain or fragment)
chain: IAELPPKVSVFVPPRDGFFGNPRKSKLICQATGFSPRQIQVSWLREGKQVGSGVTTDQVQAEAKESGPTTYKVTSTLTIKESDWLGQSMFTCRVDHRGLTFQQNASSMCVPDQDTAIRVFAIPPSFASIFLTKSTKLTCLVTDLTTYDSVTISWTRQNGEAVKTHTNISESHPNATFSAVGEASICEDDWNSGERFTCTVTHTDLPSPLKQTISRPKGVALHRPDVYLLPPAREQLNLRESATITCLVTGFSPADVFVQWMQRGQPLSPEKYVTSAPMPEPQAPGRYFAHSILTVSEEEWNTGETYTCVVAHEALPNRVTERTVDKSTGKPTLYNVSLVM
Take B1: in [15], the “stoichiometry N” value was 6 and 4.

B2: Human Fcμ variant with the tailpiece truncated to 12 residues (domain or fragment)
chain: IAELPPKVSVFVPPRDGFFGNPRKSKLICQATGFSPRQIQVSWLREGKQVGSGVTTDQVQAEAKESGPTTYKVTSTLTIKESDWLGQSMFTCRVDHRGLTFQQNASSMCVPDQDTAIRVFAIPPSFASIFLTKSTKLTCLVTDLTTYDSVTISWTRQNGEAVKTHTNISESHPNATFSAVGEASICEDDWNSGERFTCTVTHTDLPSPLKQTISRPKGVALHRPDVYLLPPAREQLNLRESATITCLVTGFSPADVFVQWMQRGQPLSPEKYVTSAPMPEPQAPGRYFAHSILTVSEEEWNTGETYTCVVAHEALPNRVTERTVDKSTGKPTLYNVSLVMSD
On to B2, for which, in data set [15], the “stoichiometry N” value came to 6.

B3: Human Fcμ variant with the tailpiece truncated to 11 residues (domain or fragment)
chain: IAELPPKVSVFVPPRDGFFGNPRKSKLICQATGFSPRQIQVSWLREGKQVGSGVTTDQVQAEAKESGPTTYKVTSTLTIKESDWLGQSMFTCRVDHRGLTFQQNASSMCVPDQDTAIRVFAIPPSFASIFLTKSTKLTCLVTDLTTYDSVTISWTRQNGEAVKTHTNISESHPNATFSAVGEASICEDDWNSGERFTCTVTHTDLPSPLKQTISRPKGVALHRPDVYLLPPAREQLNLRESATITCLVTGFSPADVFVQWMQRGQPLSPEKYVTSAPMPEPQAPGRYFAHSILTVSEEEWNTGETYTCVVAHEALPNRVTERTVDKSTGKPTLYNVSLVMS
modifications: glycosylation at Asn563
With B3, in the data set “AUC”, the “stoichiometry N” value stood at 6.
